Measurements from patent US9549967B2, “Regulation of sodium channels by PLUNC proteins” (The University of North Carolina at Chapel Hill, priority 2009, dated 2017).

Molecular target: T1, α, β and γ ENaC subunits (Rattus norvegicus, UniProt P37089+P37090+P37091)
T1 construct: expressed in transfected cells; host or cells: Xenopus oocytes (cRNA injection), lysates
T1 sequence (P37089 1-698): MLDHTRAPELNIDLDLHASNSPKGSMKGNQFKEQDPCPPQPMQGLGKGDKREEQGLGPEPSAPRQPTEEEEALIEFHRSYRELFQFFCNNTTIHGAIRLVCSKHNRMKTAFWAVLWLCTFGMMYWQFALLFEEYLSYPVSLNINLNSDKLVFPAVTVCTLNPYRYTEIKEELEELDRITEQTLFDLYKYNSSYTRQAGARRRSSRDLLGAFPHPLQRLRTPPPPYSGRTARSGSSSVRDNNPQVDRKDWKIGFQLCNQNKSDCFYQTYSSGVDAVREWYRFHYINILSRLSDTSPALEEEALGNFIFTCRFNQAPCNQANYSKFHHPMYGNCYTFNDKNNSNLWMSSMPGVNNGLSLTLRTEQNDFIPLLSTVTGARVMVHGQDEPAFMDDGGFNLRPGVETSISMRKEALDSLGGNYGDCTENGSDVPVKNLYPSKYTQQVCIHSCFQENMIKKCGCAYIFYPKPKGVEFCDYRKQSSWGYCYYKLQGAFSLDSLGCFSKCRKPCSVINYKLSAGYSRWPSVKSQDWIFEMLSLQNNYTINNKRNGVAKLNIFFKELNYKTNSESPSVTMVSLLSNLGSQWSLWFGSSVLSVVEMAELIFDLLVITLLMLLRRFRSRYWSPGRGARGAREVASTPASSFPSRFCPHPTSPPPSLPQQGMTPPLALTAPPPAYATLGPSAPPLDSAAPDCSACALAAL
T1 sequence (P37090 1-638): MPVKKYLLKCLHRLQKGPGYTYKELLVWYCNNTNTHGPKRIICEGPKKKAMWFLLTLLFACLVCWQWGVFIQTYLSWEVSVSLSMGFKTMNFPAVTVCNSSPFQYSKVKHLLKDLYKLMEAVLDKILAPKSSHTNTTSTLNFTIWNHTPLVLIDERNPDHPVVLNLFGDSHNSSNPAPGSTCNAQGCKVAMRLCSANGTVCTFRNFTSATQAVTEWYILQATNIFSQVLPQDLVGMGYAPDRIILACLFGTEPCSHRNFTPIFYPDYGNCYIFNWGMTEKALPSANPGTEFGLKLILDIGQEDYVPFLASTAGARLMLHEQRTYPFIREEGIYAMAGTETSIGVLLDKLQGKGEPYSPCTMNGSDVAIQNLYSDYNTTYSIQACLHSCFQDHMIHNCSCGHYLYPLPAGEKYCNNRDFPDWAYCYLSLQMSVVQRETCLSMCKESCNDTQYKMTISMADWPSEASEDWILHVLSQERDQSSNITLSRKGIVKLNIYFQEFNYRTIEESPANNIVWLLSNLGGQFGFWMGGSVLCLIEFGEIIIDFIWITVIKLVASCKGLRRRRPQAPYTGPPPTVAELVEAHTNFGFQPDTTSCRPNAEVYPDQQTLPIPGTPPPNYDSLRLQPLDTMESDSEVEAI
T1 sequence (P37091 1-650): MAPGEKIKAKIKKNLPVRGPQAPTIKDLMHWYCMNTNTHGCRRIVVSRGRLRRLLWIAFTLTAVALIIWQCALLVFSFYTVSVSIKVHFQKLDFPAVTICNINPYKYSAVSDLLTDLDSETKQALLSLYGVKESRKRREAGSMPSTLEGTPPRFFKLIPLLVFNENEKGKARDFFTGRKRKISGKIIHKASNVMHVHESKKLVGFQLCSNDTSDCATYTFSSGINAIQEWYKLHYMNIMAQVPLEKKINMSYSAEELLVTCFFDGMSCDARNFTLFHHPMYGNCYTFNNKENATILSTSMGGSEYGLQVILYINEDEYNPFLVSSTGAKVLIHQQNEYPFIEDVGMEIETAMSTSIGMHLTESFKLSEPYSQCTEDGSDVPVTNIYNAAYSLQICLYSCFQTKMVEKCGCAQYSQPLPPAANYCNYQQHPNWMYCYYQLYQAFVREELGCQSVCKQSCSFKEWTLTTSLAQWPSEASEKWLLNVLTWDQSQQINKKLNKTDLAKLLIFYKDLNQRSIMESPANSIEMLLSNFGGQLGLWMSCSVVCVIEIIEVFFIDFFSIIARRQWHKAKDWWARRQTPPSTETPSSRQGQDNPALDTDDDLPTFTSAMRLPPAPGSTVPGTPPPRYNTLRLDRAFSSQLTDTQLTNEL
Test: Co-immunoprecipitation of V5-tagged SPLUNC1 with HA-tagged ENaC subunits from Xenopus oocytes
Format: binding
Details: anti-HA immunoprecipitation, probed for V5-tagged SPLUNC1
Description: Co-Immunoprecipitation: Xenopus oocytes were injected with either HA-N-Terminus or V5-C-Terminus (HA-NT/V5-CT) tagged subunits in combination with wild type (WT) untagged rat αβγENaC subunits (0.3 ng cRNA each) with or without V5-tagged SPLUNC1 and CAP2 (1 ng cRNA each). After 24 h, 40 eggs per experimental condition were lysed with buffer containing (in mM): 20 Tris, 50 NaCl, 50 NaF, 10 β-glycerophosphate, 5 Na4P2O7 pyrophosphate, 1 EDTA, pH 7.5 and protease inhibitors (complete, Roche), aprotinin (Sigma). Cell lysates were prepared by passing the eggs through a 27 G1/2 needle twice and by centrifugation at 3,600 rpm for 10 minutes at 4° C. Supernatants were transferred to new tubes and samples were spun at 14,000 rpm for 20 minutes at 4° C. Supernatants were discarded and pellets were solubilized in (mM) 50 Tris, 100 NaCl, 0.1% Triton X-100, 0.1% NP-40, 20 NaF, 10 Na4P2O7, 10 EDTA+protease inhibitor cocktail (Sigma), pH 7.5. Total inputs were taken from whole cell samples representing 4% of total protein. Solubilized proteins were incubated with 50 μl of protein A and 5 μl of anti-HA antibody (Covance) overnight while tumbling at 4° C. Samples were washed three times with (mM) 150 NaCl 50 Tris pH 7.5 buffer. Laemmli buffer was added and samples were loaded on a 15% gradient Tris-glycine gel after incubation for 10 minutes at 96° C. […]

B1: SPLUNC1: human SPLUNC1, 256 amino acid secreted PLUNC protein (SEQ ID NO:1); rSPLUNC1 = V5/6His-tagged protein purified from HEK293 media (protein, listed as Homo sapiens)
chain: MFQTGGLIVFYGLLAQTMAQFGGLPVPLDQTLPLNVNPALPLSPTGLAGSLTNALSNGLLSGGLLGILENLPLLDILKPGGGTSGGLLGGLLGKVTSVIPGLNNIIDIKVTDPQLLELGLVQSPDGHRLYVTIPLGIKLQVNTPLVGASLLRLAVKLDITAEILAVRDKQERIHLVLGDCTHSPGSLQISLLDGLGPLPIQGLLDSLTGILNKVLPELVQGNVCPLVNEVLRGLDITLVHDIVNMLIHGLQFVIKV
modifications: V5/6His tag
notes: rSPLUNC1 = V5/6His-tagged protein purified from HEK293 media
  binding to ENaC subunits (co-immunoprecipitation): bound to all three ENaC subunits
